In patent US20250073347A1 (FORTVITA BIOLOGICS SINGAPORE PTE, published 2025):

Biological target: T1, human Claudin18.2 on cells (human, UniProt P56856-2 1-261)
T1 construct: whole, on cells; also called CLDN18.2; hCLDN18.2
Test: flow cytometry on DANG-hCLDN18.2 cells, relative MFI (fold)
Experimental: The cells were centrifuged at 500 g for 5 min, and the cell medium was removed. […] The suspension was left to stand on ice for 30 min. The suspension was centrifuged at 500 g for 5 min, the supernatant was removed, and the cells were washed once with PBS. The goat anti-human Fc PE-labeled secondary antibody (SouthemBiotech, J2815-5H87B) was added at 100 µL/well. The resulting mixture was incubated on ice in the dark for 30 min. The mixture was centrifuged at 500 g for 5 min, the supernatant was removed, and the cells were washed once with PBS. The cells were resuspended in 50 μL of 1×PBS, and the suspension was loaded for FACS assay.

B1: IEX019-02 (HB37A6-SYNtecan E conjugate) (antibody, human IgG1, kappa, V domains shown)
VH: EVQLLDSGGGLVQPGGSLRLSCAASGFTFSSYVMSWVRQAPGKGLNWVSTISHSGGSTYYADSVKGRFTISRDNSKNTLYLQMNSLRAEDTAVYYCAIDAPYYDILTGYRYWGQGTLVTVSS
VL: not shown
modifications: GlcNAc(Fuc)-6-N3-GalNAc at Asn297 conjugated to linker-payload compound 1 (cleavable linker, 2 exatecan); average DAR 3.52
notes: also called SYN-HB37A6-Ex
  binding result: binds
